Experimental data taken from US20230121511A1 (Chugai, published 2023).
Substitutions are numbered along the chain they refer to. One block for each binder: values may come before it.

Columns and labels:
[1] = molecular target: T1, DualAE05-SG1202k/SG1201hV11 (engineered Cys at position 191 (EU) of CH1, unpaired); assay: SPR (Biacore T200, 37 C), tool antibody captured on mouse anti-human Fc, anti-CH1 antibody injected
T1 construct: Heterodimeric antibody with S191C in only one Fab arm, so it exists only in the “unpaired cysteines” form; not shown: light chain constant region
Procedure: (§1) Biacore binding experiments were performed to characterize binding activities of the anti-CH1 antibodies prepared in Example 3.2 to DualAE05-SG1201, DualAE05-SG1202, DualAE05-SG1202k/SG1201hV11, IgG1_001 and IgG4_001 at 37 degrees C. using Biacore T200 instrument (GE Healthcare). Specifically, mouse anti-human Fc (GE Healthcare) was immobilized onto all flow cells of a CM4 sensor chip using amine coupling kit (GE Healthcare). Tool antibodies DualAE05-SG1201, DualAE05-SG1202, DualAE05-SG1202k/SG1201hV11, IgG1_001 and IgG4_001 were captured onto flow cell, and then anti-CH1 antibodies obtained from Example 3.2 was injected over all the flow cells. All antibodies were prepared in ACES pH 7.4 containing 20 mM ACES, 150 mM NaCl, 0.05% Tween 20, 0.005% NaN₃. Sensor surface was regenerated each cycle with 3M MgCl₂.

IgG4_001 = molecular target: T2, IgG4_001; assay: as above
T2 construct: Tool antibody for screening; captured on mouse anti-human Fc; copies: 2 + 2
T2 sequence (VH, as listed by the source limits assumed): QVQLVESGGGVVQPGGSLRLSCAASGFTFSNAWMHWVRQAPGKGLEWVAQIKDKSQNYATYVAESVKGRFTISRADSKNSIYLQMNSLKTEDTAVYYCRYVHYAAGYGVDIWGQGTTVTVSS
Procedure: as §1

DualAE05-SG1202 = molecular target: T3, DualAE05-SG1202 (Heavy chain pos 202 is the engineered Cys (S191C, EU). It can form an inter-Fab disulfide between the two heavy chains, so the preparation is a mixture of the paired and unpaired cysteine forms.); assay: as above
T3 construct: Corresponds to DualAE05-SG1201 with S191C in both Fab arms
Procedure: as §1

DualAE05-SG1201 = molecular target: T4, DualAE05-SG1201; assay: as above
T4 construct: Bivalent tool antibody with human IgG1 CH1 without S191C
Procedure: as §1

IgG1_001 = molecular target: T5, IgG1_001; assay: as above
T5 construct: Tool antibody for screening; captured on mouse anti-human Fc; copies: 2 + 2
T5 sequence (VH, as listed by the source limits assumed, chain 1 of 2): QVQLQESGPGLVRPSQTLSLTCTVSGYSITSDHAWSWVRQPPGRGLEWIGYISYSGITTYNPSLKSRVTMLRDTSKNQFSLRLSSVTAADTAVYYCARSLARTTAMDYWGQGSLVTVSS
T5 sequence (VL, as listed by the source limits assumed, chain 2 of 2): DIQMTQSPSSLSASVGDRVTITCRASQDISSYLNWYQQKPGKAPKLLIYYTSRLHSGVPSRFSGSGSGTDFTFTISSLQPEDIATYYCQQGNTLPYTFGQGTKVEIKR
Procedure: as §1

Human CD3eg linker = molecular target: T6, Human CD3eg linker (human); assay: SPR (Biacore 8K), antibody captured on anti-human Fc, recombinant human CD3 as analyte, 25 C, 1:1 model
T6 construct: Single-chain soluble construct expressed in FreeStyle293F cells; used as the SPR analyte; also called recombinant human CD3
T6 chain: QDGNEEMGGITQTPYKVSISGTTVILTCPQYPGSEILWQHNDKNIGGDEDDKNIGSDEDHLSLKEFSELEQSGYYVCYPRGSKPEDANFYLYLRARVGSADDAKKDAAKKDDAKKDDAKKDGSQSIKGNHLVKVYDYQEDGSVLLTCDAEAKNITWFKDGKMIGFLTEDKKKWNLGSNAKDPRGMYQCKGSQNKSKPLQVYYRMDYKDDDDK
Procedure: Binding affinity of Dual-Fab antibodies (Dual-Ig) to human CD3 were assessed at 25 degrees C. using Biacore 8K instrument (GE Healthcare). Anti-human Fc (GE Healthcare) was immobilized onto all flow cells of a CM4 sensor chip using amine coupling kit (GE Healthcare). Antibodies were captured onto the anti-Fc sensor surfaces, then recombinant human CD3 or CD137 was injected over the flow cell. All antibodies and analytes were prepared in ACES pH 7.4 containing 20 mM ACES, 150 mM NaCl, 0.05% Tween 20, 0.005% NaN₃. Sensor surface was regenerated each cycle with 3M MgCl₂. […] CD137 binding affinity assay was conducted in same condition except assay temperature was set at 37 degrees C.

Relative binding activity to tool antibody (normalized against RU binding value for IgG1_001) [1]: 0.922 | Relative binding activity to tool antibody (normalized against RU binding value for IgG1_001) (IgG4_001): -0.017 | Relative binding activity to tool antibody (normalized against RU binding value for IgG1_001) (DualAE05-SG1202): 0.206 | Relative binding activity to tool antibody (normalized against RU binding value for IgG1_001) (DualAE05-SG1201): 1.02 | Relative binding activity to tool antibody (normalized against RU binding value for IgG1_001) (IgG1_001): 1
B2: FAB0133hh (antibody, V domains shown)
VH: QSLEESGGRLVTPGTPLTLTCTASGFSLSTYYMNWVRQAPGKGLEWIGTITIDGTAYYASWAKGRFTISRTSTTVDLKAASPTTEDTATYFCARYDGDIWGPGTLVTVSS
VL: DVVMTQTPASVSEPVGGTVTIKCQASQSISTALAWYQQKPGQPPKLLIHGASILESGVPSRFKGSGSGTEFTLTISDLECADVATYYCQCTYYGISYGNAFGGGTKVEIK
notes: Conformation-specific anti-CH1 antibody from immunised rabbits

Kd (Human CD3eg linker): 156 nM
B5: H1573L0581 (antibody, V domains shown)
VH: QVQLVESGGGLVQPGRSLRLSCAASGFKFSNVWFHWVRQAPGKGLEWVAQIKDYYNAYAAYYAPSVKGRFTISRDDSKNSIYLQMNSLKTEDTAVYYCHYVHYASASTLLPAFGVDAWGQGTTVTVSS
VL: DIVMTQSPLSLPVTPGEPASISCQPSQEVVHMNRNTYLHWYQQKPGQAPRLLIYKVSNRFPGVPDRFSGSGSGTDFTLKISRVEAEDVGVYYCAQGTSHPFTFGQGTKLEIK
notes: Dual-Fab antibody (Dual-Ig) captured via anti-human Fc; also called DualAE07; dBBDu183H1573/dBBDu072L0581

Second part, the binder before the results:

B1: FAB0060hh (antibody, V domains shown)
VH: B2 VH with Y32W, T51N, T55S, Y57A, R94T, D96G
VL: B2 VL with H49Y, I53T, V83A, I95N, S96N
notes: as for B2
Relative binding activity to tool antibody (normalized against RU binding value for IgG1_001) [1]: 0.957

B3: FAB0059ff (antibody, V domains shown)
VH: B2 VH with T30S, Y32W, I50V, T51N, T55S, A56T, Y57D, D96G, T107I, S110L
VL: B2 VL with H49Y, I53T, V83A, I95S
notes: as for B2
Relative binding activity to tool antibody (normalized against RU binding value for IgG1_001) [1]: 0.929

B4: FAB0135hh (antibody, V domains shown)
VH: QSLEESGGRLVTPGTPLTLTCTASGFSLSSYYMSWVRQAPGEGLEYIGWISSDGSTYYASWAKGRFTISRTSTTVDLKITSPTTEDTATYFCARDYAASNIWGPGTLVTVSS
VL: DVVMTQTPASVSEPVGGTVTIKCQASENIGNALAWYQQKPGQRPKLLIYGASNLESGVPSRFKGSRSGTEYTLTISDLECDDAATYYCQSTYYSSSYSNPFGGGTKVEIK
notes: as for B2
Relative binding activity to tool antibody (normalized against RU binding value for IgG1_001) [1]: 0.96
